Columns and labels:
MS2 coat protein [1] = assay: apparent KD of MS2 coat protein, switch ON state; designed switch direction (-1 OFF switch, 1 ON switch): -1; higher = weaker reporter binding; conditions: FMN input: 0 or 200 uM; Eterna round: R93 (includes R88 designs)
In short: (§1)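 Apparent KD per design is the median of normalised cluster binding-curve fits. Designed RNA switches transcribed on-chip from Illumina sequencing clusters were titrated with SNAP-549-labelled MS2 coat protein in twofold steps from 0.7 or 1.5 nM to 3 µM, with 0.8–1.5 h down to 10–20 min per step. Buffer: 100 mM Tris-HCl pH 7.5, 80 mM KCl, 4 mM MgCl2, without or with constant ligand.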

MS2 coat protein [2] = assay: apparent KD of MS2 coat protein, switch OFF state (with FMN for OFF switches, without FMN for ON switches); designed switch direction (-1 OFF switch, 1 ON switch): -1; higher = weaker reporter binding; conditions: FMN input: 0 or 200 uM; Eterna round: R93 (includes R88 designs)
In short: as §1

Row | Sequence | apparent KD of MS2 coat protein (MS2 coat protein [1]) [nM] | apparent KD of MS2 coat protein (MS2 coat protein [2]) [nM]
1 | AAAAAACAUGAGGAUCACCCAUGUAAGGAUAUGCAAAAUAAAAGAAAUAAAAAGGAAAGCAGAAGGUACAUGAA [JL wbt mod 8] | 21.9 | 42.5
2 | AAAAAGCGAGGAUAUACAUAGCUAAGACAAAUAAGCAAAAAACAUGAGGAUCACCCAUGUAGAAGGCGCAAAAA [Exclusion2-01] | 19.6 | 15.4
3 | AACAUGUCAGGAUAUGCGAAGGCGUCUGACAGACGAGGCUAGCAGAAGGGACAUGAGGAUCACCCAUGUAAAAA [Mod of Power Strip by EINando888 - changed 3 and 30 to C] | 111 | 48.8
4 | CUCUUGUCAGGAUAUAGAAGAAAAGAAGAGAAAGAAAAGAACUAGAAGGGACAUGAGGAUCACCCAUGUAAGAA [EteRNA is fun!] | 48.7 | 49.2
5 | AAGUAGGUAGGAUAUACAUAGAUACAGAUUCAUGUGGAACUACAUGAGGAUCACCCAUGUAGAAGGACCUAAUA [AJ 40] | 30.2 | 126
6 | AAAAACUGAGGAUAUACGAAAAAAAAAAAAAAAAAAAAAAAACAUGAGGAUCACCCAUGUAGAAGGCAGAAAAA [exclusion 02 - A] | 41.4 | 57.5
7 | AAAAGUAGAGGAUAUACAUGAGGAUCACCCAUGUAGAAAGGAAGUAUAUAUAUGGCGUGUAGAAGGCUGCAUGA [Mat - Mod of Nando] | 26.7 | 28
8 | AACUAGUCAGGAUAUACGAACAUGUCAAAAAACAUAAAGGGACAUGAGGAUCACCCAUGUAGAAGGGACUAACA [74%, Web mod - With 5 less G's] | 299 | 500
9 | AGCUAGUCAGGAUAUACGAACAUGUCAGGAGACGUGAAGGGACAUGAGGAUCACCCAUGUAGAAGGGACUAGCG [74%, Web mod - With 3 more G's] | 37.2 | 128
10 | AAAAAACAUGAGGAUCACCCAUGUAAGGAUAUGACUUAAAUAAAGAAAGAAGAAAUAGUCAGAAGGUACAAAUA [Disincluded (MS2 Riboswitches - States energetically close)] | 20.4 | 31
11 | AAAAAACAUGAGGAUCACCCAUGUGAGGAUAUUGGUAUUAAAGACACCCACUUAAUGGCGAGAAGGCGCAAAAA [Brourd 613 Mod 19 - Jieux - Exclusion 1] | 25.5 | 27.5
12 | AAGAACACAGGAUAUACAUGAGGAUCACCCAUGUAAAAGAAAGAAAAGGGAAAGAAAAGUAGAAGGGUGAAGAA [Nebkheperure Tutankhaten] | 44.7 | 51.3
13 | ACAAGCCUAGGAUAUACAUGAGGAUCACCCAUGUGAAAGAACCGGUGACUCCUGGAAAGUAGAAGGAGGAAUCG [Biatla] | 44.7 | 40.1
14 | AAAAAACAUGAGGAUCACCCAUGUCAGGAUAUCCGGAAAAAAAAAAAAAAAAGGCGUUGGAGAAGGGACAUUCC [Chica Displaced 8 - Jieux - Exclusion 1] | 28.7 | 36.8
15 | GAGAAGUGAGGAUAUCGAAGACAGACGAAAAGUCUGUCAAACGAGAAGGCACAUGAGGAUCACCCAUGUGGGAG [Mat - Exaclusion 4 - Eli mod - D75] | 81.2 | 302
16 | AAGAAGUGAGGAUAUACAUGAGGAUCACCCAUGUAAAAGAAAGAAGGGAAAGAGAAAAGUAGAAGGCACAAGAA [Usermaatre-setepenamun Osorkon III] | 28.5 | 31.3
17 | AAAAAGGGAGGAUAUACAUGAGGAUCACCCAUGUAGCAGACGAAAAAGAGUCUGUAAUGUAGAAGGCCCAAAAA [65%, Moding Exclusion3-cac2, 4] | 16.2 | 32.2
18 | UAAAGGCGAGGAUAUACAUGAGGAUCACCCAUGUGAAUAAAUAAGAAAAUAAAAGAAAGUAGAAGGCGCAAGAA [LROPPY Exclusion 3 - v03_deltaG=1.9 break up As mixed] | 44.1 | 44.9
19 | AACUGUACAGGAUAUACAUGAGGAUCACCCAUGUGAGAAUUAAGUGGGAAACCACAAAGUAGAAGGGUACAGGA [Mat - Exclusion 3 - JL mod - D19] | 29.1 | 162
20 | AAAAAGAUAGGAUAUACGAACAUGUCAAAAGACGUGAAGGGACAUGAGGAUCACCCAUGUAGAAGGGUUAAAAA [JL Wide Open 38] | 155 | 66.6
21 | AGAAAACAUGAGGAUCACCCAUGUCAGGAUAUCAAAAAGAAAAGAAAAGAAAGAAGAAUGAGAAGGGACAAGAA [Khasekhem(wy)] | 27.5 | 32.1
22 | AAAAAGUGAGGAUAUACGAAAAAAAAAAAAAAAAAAGGUGAACAUGAGGAUCACCCAUGUAGAAGGCACAAAAA [Black Design] | 102 | 312

Row | Sequence | apparent KD of MS2 coat protein (MS2 coat protein [1]) [nM] | apparent KD of MS2 coat protein (MS2 coat protein [2]) [nM]
23 | AAGAAACAUGAGGAUCACCCAUGUGAGGAUAUGGAAAAGAAAAGAAAAGAAAGAAGAACCAGAAGGCACAAAGG [Neferkare (VI) Pepiseneb] | 71.8 | 50.8
24 | CUUAAACAUGAGGAUCACCCAUGUGAGGAUAUGAUGCGAAUAAAGAAAGAAGAAAGCAUCAGAAGGCACAUAUG | 27.7 | 129
25 | AGAAAGUCAGGAUAUAUGCGAAAAAUAAAAAAAAUAAAAACAUAGAAGGGACAUGAGGAUCACCCAUGUUAAGA [Mat - Exclusion 4 - Mayanna - D136] | 50 | 32
26 | AAUAACACAGGAUAUACUAAAGAAAUGAAAAGAAAUAAAGAACAUGAGGAUCACCCAUGUAGAAGGGUGAAUAA [Shenshek] | 204 | 186
27 | AGCUAGUCAGGAUAUACGAACAAGUCAAAAGACGAGAACGGACAUGAGGAUCACCCAUGUAGAAGGGACUAGCA [Diamond 7] | 16.1 | 13.6
28 | AAAAAGGGAGGAUAUACGAAACAGGGAAACCUGAAAAAGGGACAUGAGGAUCACCCAUGUAGAAGGCCCAAGAA [Clint Eastwood 64% 5] | 40.2 | 268
29 | AAAAAAAGAGGAUAUACAUGAAAAAUAAAAAUGUAAAAAAAACAUGAGGAUCACCCAUGUAGAAGGCUUAAAAA [Ecx-I 62% 1] | 24.6 | 25.9
30 | AAGAACGUAGGAUAUACAAAAUAAAAGAAAAGAAAGAAAGAACAUGAGGAUCACCCAUGUAGAAGGACGAAGAA [Sekhemrekhutawy Khabaw] | 21.6 | 21.8
31 | AGACAUACAGGAUAUACAUAGGAAAAAAAAAAAAAAAUUCAACAUGAGGAUCACCCAUGUAGAAGGGUAUGUCA [Ex2 Design 172: Random 2] | 65.5 | 69.9
32 | AUAGUACAUGAGGAUCACCCAUGUCAGGAUAUUCGAAAUGAAAAAAAAAAAAAGUGAAGGAGAAGGGACUAUAA [EX1 Malc#12] | 21.5 | 20.1
33 | AGACAUACAGGAUAUACAUGGGAAAAAAAAAAAAAAAUUCUACAUGAGGAUCACCCAUGUAGAAGGGUAUGUCA [Ex2 Design 171: Random 1B] | 81.1 | 31.1
34 | AGUUAGUCAGGAUAUGCGUGAAGAAUAAAAGAAAUAACAACGCAGAAGGGACAUGAGGAUCACCCAUGUAAACA [May 55] | 34.2 | 37.3
35 | AAAAUACGAGGAUAUACAUGAGGAUCACCCAUGUCAAAAAAUGACUACACAAAAGAAAGUAGAAGGCGUAAAAG [Mat - Exclusion 3 - Mayanna mod - D127] | 24 | 41.8
36 | AAAUUGUCAGGAUAUCUUAGAACUCUAAAAUAGAGGAGCUAAGAGAAGGGACAUGAGGAUCACCCAUGUAAAAC [May 89] | 86.5 | 71
37 | AACAGACAUGAGGAUCACCCAUGUGAGGAUAUGGCAAUCGAUAGAACUAGAAUGACAACCAGAAGGCACAGCAA [JR_Exc001_Sub004] | 77.6 | 86.3
38 | AACAAGUGAGGAUAUUGGAAAAGUAAAUAAGUAAAACAAAACAAGAAGGCACAUGAGGAUCACCCAUGUAAAUA [JR_Exc004_Sub017] | 21.9 | 17.9
39 | AACUGACAUGAGGAUCACCCAUGUCAGGAUAUGCUUCAUAAAACAAAAACAAAAUGAUGCAGAAGGGACAUGAA [Design 26 :P Sub-opt 2] | 16.3 | 14.6
40 | UAACAGUCAGGAUAUGGACAAUACAAUACAAACAAAUAAAGCCAGAAGGGACAUGAGGAUCACCCAUGUAAACA [Simple] | 41.6 | 23
41 | AAAAUGUCAGGAUAUGCGAAGGCGUCUGACAGACGAGGAUUGCAGAAGGGACAUGAGGAUCACCCAUGUAAAAA [A Change in Energy (MS2 Riboswitch - Exclusion 4)] | 84.3 | 131
42 | AAAAAGUAAGGAUAUAGCAAAGGUCACGAAAGUGACAAAGGCUAGAAGGUACAUGAGGAUCACCCAUGUCCAAG [Mat - Exclusion 4 - Eli mod - D100] | 30.8 | 16.6
43 | AAAAACUGAGGAUAUACAUGAGGAUCACCCAUGUGAAAGAAAGAAAAAAGAAAAGAAAGUAGAAGGCAGAAAAA [Ruby 76] | 34 | 29.5
44 | AAAAAACAUGAGGAUCACCCAUGUCAGGAUAUACGAUAAAAAAAAAAAAAAAAAAAAUGUAGAAGGGACAAAAA [Simple 1] | 60.3 | 60.8
